# Measurements reported in US20260242818A1.
# Target: barnase (Bacillus amyloliquefaciens) (UniProt P00648)
# Assay: cell-based or functional assay
# UniProt P00648, sequence (P00648 48-157 limits assumed): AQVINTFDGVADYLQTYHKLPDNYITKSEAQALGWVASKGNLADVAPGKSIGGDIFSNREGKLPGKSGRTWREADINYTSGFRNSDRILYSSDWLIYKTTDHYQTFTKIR
substance,measurement,value
barstar (from UniProt P11540 2-90),"pollen formation in F1 anthers (PI staining, confocal microscopy); TA29b::barnase × TA29b::barstar, barstar under the same promoter as barnase (pollen grains)",0
same,"pollen viability (FDA/PI assay) in successful rescue F1 flowers, TA29b::barnase × TA29a::barstar",3.6%
